Experiment [1] deals with T1, Soluble monomeric B7H6-His (UniProt Q68D85 25-262, limits assumed).
T1 construct: extracellular domain; also called monovalent B7H6; soluble B7H6; not shown: C-terminal Avi-tag and 6xHis-tag
T1 sequence (looked up): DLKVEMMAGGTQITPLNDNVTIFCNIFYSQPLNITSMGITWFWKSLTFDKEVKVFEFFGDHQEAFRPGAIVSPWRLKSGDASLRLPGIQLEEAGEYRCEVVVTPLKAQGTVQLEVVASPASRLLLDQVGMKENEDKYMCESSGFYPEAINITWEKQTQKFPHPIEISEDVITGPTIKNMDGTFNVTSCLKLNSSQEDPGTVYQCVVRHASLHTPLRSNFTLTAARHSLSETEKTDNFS
The experiment can be described thus: BLI, Fc fusion on Protein A tips, monovalent B7H6-His. Here is the method:
(§1) BioLayer Interferometry (BLI) measurements of affinity KD were obtained using the ForteBio Octet RED96 system as previously described. Briefly, Protein A-coated biosensor tips were “activated” by incubation with 41 nM TZ47-Fc, NKp30-Fc, or CC3-Fc for 10 min to load tips. Binding to soluble B7H6-His were assessed by allowing TZ47-Fc, NKp30-Fc, or CC3-Fc coated tips to equilibrate in PBS+0.1% Tween-20 (PBST) for 5 min, followed by association steps in 200 μL of each antigen at concentrations ranging from 0 to 3000 nM for 10 min, and dissociation steps in 200 µL of PBST for 5 min. Data was analyzed using Octet® System Data Analysis software.
(§2) Clone CC5, which contains only the consensus S82P mutation, along with CC3, which had two additional amino acid substitutions, were chosen for further characterization. To define binding affinities and kinetics with improved resolution, CC3, CC5, NKp30, and TZ47 sequences were expressed recombinantly as Fc fusion proteins. Affinity to monovalent B7H6 was determined by Biolayer Interferometry (BLI). […] The fast on and off rate profile of NKp30 was maintained in the variants despite the increase in overall affinity.

Experiment [2] concerns the target T1, Soluble monomeric B7H6-His. The experiment can be described thus: BLI (Octet RED96), Fc fusion on Protein A tips, monovalent B7H6-His in solution, steady state affinity. Here is the method:
as §1, §2
Background: Biolayer interferometry detects binding as a change in optical thickness at a sensor tip.

The values that follow come from patent US20240189424A1 (published 2024).

Residue numbers refer to the chain shown, from its start.

By Kd is commonly meant a measure of binding affinity in units of concentration. On to “CC3-Fc (from UniProt O14931 19-135) (Fc fusion)”, for which the fold improvement of KD compared to NKp30 in experiment [1] amounted to 2 fold. For the same molecule, in experiment [2], the Kd is 680 nM.

B1: CC5-Fc (Fc fusion)
chain: LWVSQPPEIRTLEGSSAFLPCSFNASQGRLAIGSVTWFRDEVVPGKEVRNGTPEFRGRLAPLAPSRFLHDHQAELHIRDVRGHDASIYVCRVEVLGLGVGTGNGTRLVVEKEHPQLG
notes: also called clone CC5; not shown: mouse IgG2a Fc domain
As for B1, in experiment [1], the “fold improvement of KD compared to NKp30” value amounted to 2 fold. This molecule displayed a Kd in experiment [2] of 580 nM.

B2: NKp30-Fc (Fc fusion)
chain: B1 chain with P64S
notes: Extracellular domain of NKp30 fused to a mouse IgG2a Fc domain, expressed in expi293 HEK cells, bivalent; also called native NKp30; wildtype NKp30; not shown: mouse IgG2a Fc domain
In turn, B2 displayed a Kd in experiment [2] of 1300 nM.
